Laboratory results taken from patent US20200095341A1 (UNIVERSITEIT TWENTE, published 2020).
Ends that are not written are not given here.

How the values were obtained:
hTGFB1 (Peprotech) = hTGFB1 (Peprotech) (human, UniProt P01137 279-390); experiment: cell-based or functional assay
hVEGF (PeproTech) [1] = target: T1, hVEGF (PeproTech) (human, UniProt P15692-4 27-191, limits assumed); experiment: immunofluorescence against hVEGF on peptide-functionalized PCL films, 1 µg/mL hVEGF
T1 construct: Commercial growth factor; also called ihVEGF; shVEGF
T1 sequence (P15692 other isoform, or with tags, fused parts or gaps limits assumed): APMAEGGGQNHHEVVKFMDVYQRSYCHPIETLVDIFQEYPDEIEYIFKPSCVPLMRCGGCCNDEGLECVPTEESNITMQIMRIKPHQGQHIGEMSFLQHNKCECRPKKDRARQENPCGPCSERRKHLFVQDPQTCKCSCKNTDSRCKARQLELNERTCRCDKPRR
Method: (§1) Samples were incubated with 1 μg/mL of VEGF (PeproTech) in 0.5% (v/v) PBS TWEEN®20 (PBST) for one hour with gentle agitation. The films were then washed three times for 10 minutes with 0.5% (v/v) PBST and then with PBS for a further 10 minutes. Next, the films were blocked for one hour with PBS containing 1% (w/v) bovine serum albumin (BSA) and subsequently washed as described above. Afterwards, the films were incubated with a primary antibody (2 μg/mL; rabbit polyclonal anti-human VEGF, PeproTech) in the blocking solution during one hour with agitation. […] Before image acquisition, the films were washed three times for 10 minutes with 1 mM PBST, rinsed three times with PBS and dried under a N2 stream. Fluorescence intensity was quantified using ImageJ.

hVEGF (PeproTech) [2] = target: T1, hVEGF (PeproTech); experiment: immunofluorescence against hVEGF on peptide-functionalized Chondro-Gide, 1 µg/mL hVEGF
Method: as §1
(§2) Both Chondro-Gide and Collagen Meniscus Implant (CMI) were incubated with 50 mM of NHS/EDC for 2 hours. […] Incubation with hVEGF, immunofluorescence staining and fluorescence quantification was performed as mentioned above for the PCL films.

hVEGF (PeproTech) [3] = target: T1, hVEGF (PeproTech); experiment: immunofluorescence against hVEGF on peptide-functionalized POLY-TAPE, 1 µg/mL hVEGF
Method: Fluorescence intensity was quantified using ImageJ. For cell experiments, the sterile PCL films were washed three times with PBS and incubated with 0.5 μg of VEGF in 0.5% (v/v) PBST for one hour with gentle agitation. Subsequently, the films were extensively washed with PBST (0.5%) and PBS to remove any traces of the washing buffer prior to cell seeding.
Incubation with hVEGF, immunofluorescence staining and fluorescence quantification was performed as mentioned above for the PCL films.
The POLY-TAPE® was oxygen plasma treated (OPT) for 5 minutes and incubated for one hour with 1 M NaOH in order to hydrolyze the esters and expose the carboxylic acids.

hVEGF (PeproTech) [4] = target: T1, hVEGF (PeproTech); experiment: immunofluorescence against hVEGF on peptide-functionalized Collagen Meniscus Implant, 1 µg/mL hVEGF
Method: as §1, §2

endogenous BMP-2 (rat) = target: T2, endogenous BMP-2 (rat) (rat, UniProt P49001 280-393, limits assumed); experiment: immunofluorescence against BMP-2 of PCL films implanted subcutaneously in rats for 7 days
T2 construct: also called BMP-2 released during inflammation
T2 sequence (P49001 280-393 limits assumed): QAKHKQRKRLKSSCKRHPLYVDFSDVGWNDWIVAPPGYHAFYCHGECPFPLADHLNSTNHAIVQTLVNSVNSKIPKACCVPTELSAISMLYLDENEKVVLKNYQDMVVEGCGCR
From the text: Both native and functionalized PCL films were subcutaneously implanted in the back of rats, facing the fascia. Each animal, with a total of three animals per time point, was implanted with both native and functionalized film. At day 3 and day 7 after implantation, samples were harvested and used for immunofluorescence against BMP-2 and for histology. Only the samples from day 7 were used for immunofluorescence against BMP-2.

hBMP-2 (PeproTech) = hBMP-2 (PeproTech) (human, UniProt P12643 283-396); experiment: cell-based or functional assay
Chain of hBMP-2 (PeproTech) (P12643 283-396 limits assumed): as the sequence (P49001 280-393 limits assumed) above

Chain of hTGFB1 (Peprotech) (P01137 279-390 limits assumed): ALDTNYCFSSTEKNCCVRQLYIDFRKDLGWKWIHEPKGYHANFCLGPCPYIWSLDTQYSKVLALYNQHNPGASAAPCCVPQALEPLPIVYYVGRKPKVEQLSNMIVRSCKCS

B1: TGFB1 binding peptide KGLPLGNSH (peptide)
peptide: Ac-KGLPLGNSH-NH2
modifications: not fully specified (residue 1); also: lysine side chain covalently coupled to PCL film
For B1, which “luciferase activity of TGFB1 reporter cell line (MLEC, PAI-1 promoter), fold over same films without hTGFB1 incubation” value (hTGFB1 (Peprotech)) is on record?
Its value is 9 fold.

B2: VEGF-binding peptide KGSWWAPFH (peptide)
peptide: Ac-KGSWWAPFH
modifications: not fully specified (residue 1); also: lysine side chain covalently coupled to film or device
notes: also called SWWAPFH with an extra glycine and lysine at the N-termini
With B2 as the binder, how does the “fluorescence intensity, fold over non-functionalized films incubated with hVEGF” value (hVEGF (PeproTech) [1]) read?
Its value is 7 fold.

What about the “fluorescence signal, fold over Chondro-Gide functionalized with NHS/EDC and incubated with hVEGF” value (hVEGF (PeproTech) [2]) of the same binder?
The value was 2.2 fold.

And the “fluorescence signal, fold over native POLY-TAPE with hVEGF” value (hVEGF (PeproTech) [3])?
The value was 2.3 fold.

And the “fluorescence signal, fold over oxygen plasma treated POLY-TAPE with hVEGF” value (hVEGF (PeproTech) [3])?
The value was 1.5 fold.

What about the “fluorescence signal, fold (reference taken as native CMI incubated with hVEGF)” value (hVEGF (PeproTech) [4]) of the same binder?
Its value is 3.3 fold.

B3: scrambled peptide KGHNLGLPS (peptide)
peptide: Ac-KGHNLGLPS-NH2
modifications: not fully specified (residue 1); also: lysine side chain covalently coupled to PCL film
How did the “luciferase activity of TGFB1 reporter cell line (MLEC, PAI-1 promoter), fold over same films without hTGFB1 incubation” value (hTGFB1 (Peprotech)) turn out when B3 was run?
The value was 3 fold.

B4: BMP-2-binding peptide KGYPVHPST (peptide)
peptide: Ac-KGYPVHPST
modifications: not fully specified (residue 1); also: lysine side chain covalently coupled to film or tape
notes: also called YPVHPST with an extra glycine and lysine at the N-termini
Does B4 bind (endogenous BMP-2 (rat))?
Result: binds

What about the “ALP produced by C2C12 after 7 days, fold over controls; functionalized films incubated with 5.0 µg hBMP-2” value (hBMP-2 (PeproTech)) of the same binder?
Its value is 12.7 fold.

What about the “ALP production by C2C12, ratio to hBMP-2 nonspecifically adsorbed on native films” value (hBMP-2 (PeproTech)) of the same binder?
Its value is 2.4 fold.

And the “luciferase of BMP-2 reporter cell line (C2C12 Luc), fold increase; films incubated with 500 ng hBMP-2” value (hBMP-2 (PeproTech))?
The value was 5.3 fold.

And the “luciferase of BMP-2 reporter cell line (C2C12 Luc, ID1 promoter), normalized to films without hBMP-2; films incubated with 500 ng hBMP-2” value (hBMP-2 (PeproTech))?
The value was 10.4 fold (normalized luciferase).
